Experimental data published in article PMC13184332.

T1: His-GFP-KERP2Δ185-239 (Entamoeba histolytica, UniProt C4LZX9 1-184, del185-239)
T1 sequence: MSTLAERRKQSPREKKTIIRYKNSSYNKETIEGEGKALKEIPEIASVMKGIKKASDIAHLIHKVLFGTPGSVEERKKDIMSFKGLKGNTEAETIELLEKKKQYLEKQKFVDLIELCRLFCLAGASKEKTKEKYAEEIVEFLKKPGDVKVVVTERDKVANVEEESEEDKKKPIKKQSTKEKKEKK

T2: His-GFP-KERP2 (Entamoeba histolytica, UniProt C4LZX9 1-239)
T2 sequence: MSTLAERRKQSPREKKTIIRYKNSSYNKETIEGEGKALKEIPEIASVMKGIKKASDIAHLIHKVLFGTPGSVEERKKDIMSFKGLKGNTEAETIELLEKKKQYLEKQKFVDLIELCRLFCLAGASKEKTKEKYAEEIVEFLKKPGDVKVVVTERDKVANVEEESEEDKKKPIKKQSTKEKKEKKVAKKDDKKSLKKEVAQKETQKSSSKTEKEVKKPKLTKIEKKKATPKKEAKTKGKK

B1: dsGC (dsDNA)
DNA 1: CGGGGCGCCGCGGGGCCCCCGGCCCGCCCCGCGGGGCGCCGGGCCCCGCC
DNA 2: GGCGGGGCCCGGCGCCCCGCGGGGCGGGCCGGGGGCCCCGCGGCGCCCCG
B2: dsAT (dsDNA)
DNA 1: TTAATTAAATAAATTAAAAAATTTTTTAATTAAATTAATTAATAAATTAAAATAAATTTTTTAATTAAATTTTAA
DNA 2: TTAAAATTTAATTAAAAAATTTATTTTAATTTATTAATTAATTTAATTAAAAAATTTTTTAATTTATTTAATTAA
B3: ssAT (ssDNA)
DNA: B2 DNA 1

These binders were tested against T1, His-GFP-KERP2Δ185-239 (assay: EMSA).
B1: no binding. B2: binds. B3: binds.

What follows are binders tested against T2, His-GFP-KERP2 (assay: EMSA).
B1: no binding. B2: binds. B3: binds.
